Measurements taken from patent US20240117334A1, “FACTOR B PROTEASES” (Vertex Pharmaceuticals Incorporated, priority 2021, published 2024).

biological target: Human Factor B (human) (UniProt P00751); test: cell-based or functional assay
Sequence (P00751 26-764 limits assumed): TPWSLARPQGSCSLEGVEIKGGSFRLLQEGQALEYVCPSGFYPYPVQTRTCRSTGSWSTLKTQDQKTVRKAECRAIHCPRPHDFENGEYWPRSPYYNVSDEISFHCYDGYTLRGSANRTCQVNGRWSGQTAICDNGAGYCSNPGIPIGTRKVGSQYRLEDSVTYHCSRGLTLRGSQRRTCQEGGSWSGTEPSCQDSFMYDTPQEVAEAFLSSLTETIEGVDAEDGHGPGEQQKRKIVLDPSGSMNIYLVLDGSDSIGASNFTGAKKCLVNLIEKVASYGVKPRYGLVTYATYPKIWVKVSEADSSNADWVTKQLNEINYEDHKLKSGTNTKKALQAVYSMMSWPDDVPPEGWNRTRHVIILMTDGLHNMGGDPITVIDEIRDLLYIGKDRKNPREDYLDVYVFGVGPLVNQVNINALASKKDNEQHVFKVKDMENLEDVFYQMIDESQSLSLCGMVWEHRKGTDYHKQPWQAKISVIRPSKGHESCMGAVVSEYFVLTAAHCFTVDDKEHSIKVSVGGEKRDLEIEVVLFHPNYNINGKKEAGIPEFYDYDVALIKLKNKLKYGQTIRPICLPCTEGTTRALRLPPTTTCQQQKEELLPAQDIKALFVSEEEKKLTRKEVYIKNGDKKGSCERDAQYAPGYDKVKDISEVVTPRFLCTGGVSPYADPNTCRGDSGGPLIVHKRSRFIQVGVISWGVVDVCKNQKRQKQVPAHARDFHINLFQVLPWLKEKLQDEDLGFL

fB Cleavage EC50 [µM]	Binder
3.74	chymase C22S/P38Q/H100P/L116R/F123L/Q180H/A226R/R235S (enzyme) IIGGTESKPHSRPYMAYLEIVTSNGQSKFCGGFLIRRNFVLTAAHCAGRSITVTLGAHNITEEEDTWQKLEVIKQFRHPKYNTSTLPHDIMLLKLKEKASLTRAVGTLPLPSQFNFVPPGRMCRVAGWGRTGVLKPGSDTLQEVKLRLMDPQACSHFRDFDHNLHLCVGNPRKTKSAFKGDSGGPLLCAGVAQGIVSYGRSDAKPPRVFTRISHYSPWINQILQAN
3.16	chymase C22S/M135T/P150S/S152G/Q166H/D175N/A190T/A226R (enzyme) IIGGTESKPHSRPYMAYLEIVTSNGPSKFCGGFLIRRNFVLTAAHCAGRSITVTLGAHNITEEEDTWQKLEVIKQFRHPKYNTSTLHHDIMLLKLKEKASLTLAVGTLPFPSQFNFVPPGRTCRVAGWGRTGVLKSGGDTLQEVKLRLMDPHACSHFRNFDHNLQLCVGNPRKTKSTFKGDSGGPLLCAGVAQGIVSYGRSDAKPPRVFTRISHYRPWINQILQAN
4.8	chymase C22S/F41R/L99H/G151T/F173L/Y215K/A226R (enzyme) IIGGTESKPHSRPYMAYLEIVTSNGPSKRCGGFLIRRNFVLTAAHCAGRSITVTLGAHNITEEEDTWQKLEVIKQFRHPKYNTSTHHHDIMLLKLKEKASLTLAVGTLPFPSQFNFVPPGRMCRVAGWGRTGVLKPTSDTLQEVKLRLMDPQACSHLRDFDHNLQLCVGNPRKTKSAFKGDSGGPLLCAGVAQGIVSKGRSDAKPPRVFTRISHYRPWINQILQAN
6.64	chymase C22S/F41R/L99H/F173L/Y215K/A226R (enzyme) IIGGTESKPHSRPYMAYLEIVTSNGPSKRCGGFLIRRNFVLTAAHCAGRSITVTLGAHNITEEEDTWQKLEVIKQFRHPKYNTSTHHHDIMLLKLKEKASLTLAVGTLPFPSQFNFVPPGRMCRVAGWGRTGVLKPGSDTLQEVKLRLMDPQACSHLRDFDHNLQLCVGNPRKTKSAFKGDSGGPLLCAGVAQGIVSKGRSDAKPPRVFTRISHYRPWINQILQAN
7.77	chymase C22S/K93Q/G119D/F173S/K192R/A226R (enzyme) IIGGTESKPHSRPYMAYLEIVTSNGPSKFCGGFLIRRNFVLTAAHCAGRSITVTLGAHNITEEEDTWQKLEVIKQFRHPQYNTSTLHHDIMLLKLKEKASLTLAVDTLPFPSQFNFVPPGRMCRVAGWGRTGVLKPGSDTLQEVKLRLMDPQACSHSRDFDHNLQLCVGNPRKTKSAFRGDSGGPLLCAGVAQGIVSYGRSDAKPPRVFTRISHYRPWINQILQAN
6.64	chymase C22S/L160V/S189T/A226R (enzyme) IIGGTESKPHSRPYMAYLEIVTSNGPSKFCGGFLIRRNFVLTAAHCAGRSITVTLGAHNITEEEDTWQKLEVIKQFRHPKYNTSTLHHDIMLLKLKEKASLTLAVGTLPFPSQFNFVPPGRMCRVAGWGRTGVLKPGSDTLQEVKVRLMDPQACSHFRDFDHNLQLCVGNPRKTKTAFKGDSGGPLLCAGVAQGIVSYGRSDAKPPRVFTRISHYRPWINQILQAN
8.73	chymase C22S/F41V/L99H/F173L/Y215K/A226R (enzyme) IIGGTESKPHSRPYMAYLEIVTSNGPSKVCGGFLIRRNFVLTAAHCAGRSITVTLGAHNITEEEDTWQKLEVIKQFRHPKYNTSTHHHDIMLLKLKEKASLTLAVGTLPFPSQFNFVPPGRMCRVAGWGRTGVLKPGSDTLQEVKLRLMDPQACSHLRDFDHNLQLCVGNPRKTKSAFKGDSGGPLLCAGVAQGIVSKGRSDAKPPRVFTRISHYRPWINQILQAN
9.01	chymase C22S/K111E/F173L/Y215H/A226R (enzyme) IIGGTESKPHSRPYMAYLEIVTSNGPSKFCGGFLIRRNFVLTAAHCAGRSITVTLGAHNITEEEDTWQKLEVIKQFRHPKYNTSTLHHDIMLLKLKEEASLTLAVGTLPFPSQFNFVPPGRMCRVAGWGRTGVLKPGSDTLQEVKLRLMDPQACSHLRDFDHNLQLCVGNPRKTKSAFKGDSGGPLLCAGVAQGIVSHGRSDAKPPRVFTRISHYRPWINQILQAN
7.89	chymase C22S/F41L/L99H/F173L/Y215K/A226R (enzyme) IIGGTESKPHSRPYMAYLEIVTSNGPSKLCGGFLIRRNFVLTAAHCAGRSITVTLGAHNITEEEDTWQKLEVIKQFRHPKYNTSTHHHDIMLLKLKEKASLTLAVGTLPFPSQFNFVPPGRMCRVAGWGRTGVLKPGSDTLQEVKLRLMDPQACSHLRDFDHNLQLCVGNPRKTKSAFKGDSGGPLLCAGVAQGIVSKGRSDAKPPRVFTRISHYRPWINQILQAN
3.28	chymase C22S/L99R/F173Y/K192R/A226R (enzyme) IIGGTESKPHSRPYMAYLEIVTSNGPSKFCGGFLIRRNFVLTAAHCAGRSITVTLGAHNITEEEDTWQKLEVIKQFRHPKYNTSTRHHDIMLLKLKEKASLTLAVGTLPFPSQFNFVPPGRMCRVAGWGRTGVLKPGSDTLQEVKLRLMDPQACSHYRDFDHNLQLCVGNPRKTKSAFRGDSGGPLLCAGVAQGIVSYGRSDAKPPRVFTRISHYRPWINQILQAN
11.5	chymase C22S/F41G/L99H/G151T/F173L/Y215K/A226R (enzyme) IIGGTESKPHSRPYMAYLEIVTSNGPSKGCGGFLIRRNFVLTAAHCAGRSITVTLGAHNITEEEDTWQKLEVIKQFRHPKYNTSTHHHDIMLLKLKEKASLTLAVGTLPFPSQFNFVPPGRMCRVAGWGRTGVLKPTSDTLQEVKLRLMDPQACSHLRDFDHNLQLCVGNPRKTKSAFKGDSGGPLLCAGVAQGIVSKGRSDAKPPRVFTRISHYRPWINQILQAN
5.42	chymase C22S/F41V/L99H/G151T/F173L/Y215K/A226R (enzyme) IIGGTESKPHSRPYMAYLEIVTSNGPSKVCGGFLIRRNFVLTAAHCAGRSITVTLGAHNITEEEDTWQKLEVIKQFRHPKYNTSTHHHDIMLLKLKEKASLTLAVGTLPFPSQFNFVPPGRMCRVAGWGRTGVLKPTSDTLQEVKLRLMDPQACSHLRDFDHNLQLCVGNPRKTKSAFKGDSGGPLLCAGVAQGIVSKGRSDAKPPRVFTRISHYRPWINQILQAN
10.2	chymase C22S/F41G/L99H/F173L/Y215K/A226R (enzyme) IIGGTESKPHSRPYMAYLEIVTSNGPSKGCGGFLIRRNFVLTAAHCAGRSITVTLGAHNITEEEDTWQKLEVIKQFRHPKYNTSTHHHDIMLLKLKEKASLTLAVGTLPFPSQFNFVPPGRMCRVAGWGRTGVLKPGSDTLQEVKLRLMDPQACSHLRDFDHNLQLCVGNPRKTKSAFKGDSGGPLLCAGVAQGIVSKGRSDAKPPRVFTRISHYRPWINQILQAN
3.45	chymase C22S/F41L/L99H/F173Y/Y215K/A226R (enzyme) IIGGTESKPHSRPYMAYLEIVTSNGPSKLCGGFLIRRNFVLTAAHCAGRSITVTLGAHNITEEEDTWQKLEVIKQFRHPKYNTSTHHHDIMLLKLKEKASLTLAVGTLPFPSQFNFVPPGRMCRVAGWGRTGVLKPGSDTLQEVKLRLMDPQACSHYRDFDHNLQLCVGNPRKTKSAFKGDSGGPLLCAGVAQGIVSKGRSDAKPPRVFTRISHYRPWINQILQAN
1.26	chymase E21G/C22S/R61H/M135T/F173Y/D175N/A209V/A226R (enzyme) IIGGTGSKPHSRPYMAYLEIVTSNGPSKFCGGFLIRRNFVLTAAHCAGHSITVTLGAHNITEEEDTWQKLEVIKQFRHPKYNTSTLHHDIMLLKLKEKASLTLAVGTLPFPSQFNFVPPGRTCRVAGWGRTGVLKPGSDTLQEVKLRLMDPQACSHYRNFDHNLQLCVGNPRKTKSAFKGDSGGPLLCAGVVQGIVSYGRSDAKPPRVFTRISHYRPWINQILQAN
7.13	chymase C22S/V138I/L160V/S189T/A226R (enzyme) IIGGTESKPHSRPYMAYLEIVTSNGPSKFCGGFLIRRNFVLTAAHCAGRSITVTLGAHNITEEEDTWQKLEVIKQFRHPKYNTSTLHHDIMLLKLKEKASLTLAVGTLPFPSQFNFVPPGRMCRIAGWGRTGVLKPGSDTLQEVKVRLMDPQACSHFRDFDHNLQLCVGNPRKTKTAFKGDSGGPLLCAGVAQGIVSYGRSDAKPPRVFTRISHYRPWINQILQAN
5.33	chymase C22S/F41V/L99H/G151T/F173Y/Y215K/A226R (enzyme) IIGGTESKPHSRPYMAYLEIVTSNGPSKVCGGFLIRRNFVLTAAHCAGRSITVTLGAHNITEEEDTWQKLEVIKQFRHPKYNTSTHHHDIMLLKLKEKASLTLAVGTLPFPSQFNFVPPGRMCRVAGWGRTGVLKPTSDTLQEVKLRLMDPQACSHYRDFDHNLQLCVGNPRKTKSAFKGDSGGPLLCAGVAQGIVSKGRSDAKPPRVFTRISHYRPWINQILQAN
0.546	chymase C22S/L99R/F173Y/S218L/A226R (enzyme) IIGGTESKPHSRPYMAYLEIVTSNGPSKFCGGFLIRRNFVLTAAHCAGRSITVTLGAHNITEEEDTWQKLEVIKQFRHPKYNTSTRHHDIMLLKLKEKASLTLAVGTLPFPSQFNFVPPGRMCRVAGWGRTGVLKPGSDTLQEVKLRLMDPQACSHYRDFDHNLQLCVGNPRKTKSAFKGDSGGPLLCAGVAQGIVSYGRLDAKPPRVFTRISHYRPWINQILQAN
7.51	chymase C22S/L99R/K192R/S218L/A226R (enzyme) IIGGTESKPHSRPYMAYLEIVTSNGPSKFCGGFLIRRNFVLTAAHCAGRSITVTLGAHNITEEEDTWQKLEVIKQFRHPKYNTSTRHHDIMLLKLKEKASLTLAVGTLPFPSQFNFVPPGRMCRVAGWGRTGVLKPGSDTLQEVKLRLMDPQACSHFRDFDHNLQLCVGNPRKTKSAFRGDSGGPLLCAGVAQGIVSYGRLDAKPPRVFTRISHYRPWINQILQAN
3.48	chymase C22S/V138L/A226R (enzyme) IIGGTESKPHSRPYMAYLEIVTSNGPSKFCGGFLIRRNFVLTAAHCAGRSITVTLGAHNITEEEDTWQKLEVIKQFRHPKYNTSTLHHDIMLLKLKEKASLTLAVGTLPFPSQFNFVPPGRMCRLAGWGRTGVLKPGSDTLQEVKLRLMDPQACSHFRDFDHNLQLCVGNPRKTKSAFKGDSGGPLLCAGVAQGIVSYGRSDAKPPRVFTRISHYRPWINQILQAN
5.99	chymase C22S/F173L/Y215H/A226R (enzyme) IIGGTESKPHSRPYMAYLEIVTSNGPSKFCGGFLIRRNFVLTAAHCAGRSITVTLGAHNITEEEDTWQKLEVIKQFRHPKYNTSTLHHDIMLLKLKEKASLTLAVGTLPFPSQFNFVPPGRMCRVAGWGRTGVLKPGSDTLQEVKLRLMDPQACSHLRDFDHNLQLCVGNPRKTKSAFKGDSGGPLLCAGVAQGIVSHGRSDAKPPRVFTRISHYRPWINQILQAN
4.17	chymase C22S/F41L/L99H/G151T/F173L/Y215K/A226R (enzyme) IIGGTESKPHSRPYMAYLEIVTSNGPSKLCGGFLIRRNFVLTAAHCAGRSITVTLGAHNITEEEDTWQKLEVIKQFRHPKYNTSTHHHDIMLLKLKEKASLTLAVGTLPFPSQFNFVPPGRMCRVAGWGRTGVLKPTSDTLQEVKLRLMDPQACSHLRDFDHNLQLCVGNPRKTKSAFKGDSGGPLLCAGVAQGIVSKGRSDAKPPRVFTRISHYRPWINQILQAN
